Assay results from patent US12624096B2, “Anti-tau antibodies and methods of use thereof” (GTInvent Limited, priority 2020, dated 2026).
Entries after “also recorded” stand apart in the source; their conditions may differ.

B1: S1G2: anti-tau clone, SEQ ID NO: 81 (protein)
scFv: QVQLQESGPSLVKPSQTLSLTCTVSGFSLTSNSVGWVRQAPGKAPEWVAGIDTDGEEGYNPALNSRLSITRDTSKSQVSLSLSSVTSEDTAVYYCGRSYRADGLAYGYVQAIDYWGPGLLVTVSSEGKSSGASGESKVDDQAVVTQPSSVSGSLGQRVSITCSGSFIGISSVGWFQQLPGSGLRTIIVASDGRPSGVPDRFSMSKSGNTATLTISSLQAEDEADYFCGSSDRTPYTGVFGSGTRLTVLG
modifications: S1G2 amino acid sequence
B2: S1D12: anti-tau clone from immunised sheep, SEQ ID NO: 32 (protein)
scFv: QVQLQESGPSLVKPSQTLSLTCTVSGFSLNNNAVGWVRQAPGKVPESLVGCSSDGTCYYNSALKSRLDITRDTSKNQISLSLSSVTTDDAAVYYCTRGHYSIYGYDYLGTIDYWGPGLLVTVSSEGKSSGASGESKVDDQAVLTQPSSVSGSLGQRVSITCSGSSSNVGGGNSVGWYQHLPGSGLKTIIYDTNSRPSGVPDRFSGSRSGNTATLTINSLQAEDEGDYYCVTGDSTTHDDLVGSGTRLTVLG
modifications: S1D12 amino acid sequence

Legend:
[1] = system: tau protein in brain homogenate; assay: Capture ELISA on transgenic mouse brain lysates; type: binding; details: S1D12 mAb capture; WT, L1, L66+/- and L66+/+
Experimental: Mouse brain lysates were prepared from wildtype, Line 1, Line 66+/+ and Line 66+/− (Melis et al., 2015, all surplus from Charles River, part of study R0144). All animals were female, 7-8 months old except Line 66+/+ which were 5 months old. […] The L1 cDNA construct (FIG. 23) contains human tau cDNA coding for amino acid residues 296-390 with a signal sequence and related sequences in a murine Thy-1 expression cassette. For brain lysate preparation, half brains were sectioned into four and the individual sections were homogenised in 400 μl of ice cold RIPA buffer (Cell signalling Technology) containing protease and phosphatase inhibitors. Total protein concentrations for individual samples were established by BCA-assay and each sample was subsequently diluted to 1 mg/ml for future experiments.
For capture ELISA, 100 µL S1D12 capture mAb was used to coat a nunc 96 well Maxisorp plate at 1 μg/ml and incubated for 1 hour at 37° C. Plate was washed as previously and then blocked for 1 hour at 37° C., in 2% MPBS. Brain homogenate samples (50 ng total protein) from each mouse type were added to the first wells and double diluted across the plate in PBS. These samples were left to incubate at RT for 1 hour. Various detection scAbs encompassing epitopes of interest were then added to the plate at 1 μg/ml and incubated for 1 h at RT. […]

hT40 = hT40 (Homo sapiens, UniProt P10636); assay: Sandwich ELISA, limits of detection (LoD) of antibody pairs; type: binding; details: S1D12 mAb capture
Experimental: Full length tau (hT40), at 1 μg/ml starting concentration was added to designated wells and double diluted across rest of the plates and left to incubate at R/T for 1 h. A series of detection scAbs with varying epitope recognition properties were added at 10 μg/ml to designated wells (FIG. 22). For colourimetric detection HRP conjugated anti-HuCk secondary antibody was used and the resulting immunoreaction was developed and absorbance at 450 nm measured as described previously. Cut-off point for a positive binding event was an absorbance value of 0.3 following background subtraction. In order to enhance the assay sensitivity, a chemiluminescent detection method was adopted where 50 μL SuperSignal ELISA Femto Substrate (Thermo Scientific) was added to each well following incubation with anti-HuCK HRP antibody and subsequent washing. The luminescence was read using Clariostar Plus microplate reader. A further modification to this protocol was done where various detection scAbs were directly conjugated with HRP and detected using chemiluminescent protocol as before. The lowest levels of detection achieved using different detection scAbs and a comparison of colourimetric and chemiluminescent methods of detection are shown in Table 28
The assay was conducted using chemiluminescent protocol described above.

dGAE [2] = target: T1, dGAE (Homo sapiens, UniProt P10636); assay: dGAE fibril assembly, Thioflavin S fluorescence; type: biochemical; details: 25 and 100 μM dGAE, ratios 4:1 or 1:1
Experimental: (§1) dGAE protein was diluted into 10 mM phosphate buffer, pH 7.4 (PB) with monoclonal antibody s1D12 at a ratio of 4:1 protein: Ab (100 μM dGAE+25 μM s1D12 and 10 μM dGAE+2.5 μM s1D12) or 1:1 (25 μM dGAE+25 μM s1D12).
(§2) As a positive control, dGAE was prepared at a final concentration of 10, 25 or 100 μM in 10 mM PB. Negative controls consisted of dGAE with a non-tau IgG antibody at a ratio of 4:1 (10 μM dGAE+2.5 μM anti-ovalbumin), or antibody alone (25 or 2.5 μM s1D12 and 2.5 μM anti-ovalbumin). Samples were agitated at 700 rpm at 37° C., for 3 days.
(§3) For CD, 60 μL sample was placed in a 0.1 mm quartz cuvette and placed into a JASCO spectropolarimeter. 100 μL ThS in 20 mM MOPS buffer was added to 50 μL of each sample to a final concentration of 20 μM, mixed well, incubated at room temperature for 10 minutes then fluorescence intensity measured in a Cary Eclipse spectrophotometer using an excitation wavelength of 440 nm. Baseline readings from 10 mM PB were subtracted from CD and ThS measurements.

dGAE [3] = target: T1, dGAE; assay: dGAE fibril assembly, circular dichroism; type: biochemical; details: 100 μM dGAE + 25 μM antibody (4:1), antibody spectrum subtracted
Experimental: as §1, §2, §3

plasma tau = assay: Plasma tau (Simoa) after S1D12 immunotherapy; type: in vivo, mouse; details: L66 mice
Experimental: In a six-week repeat-dose study, a total of 12 WT, 12 Line 1 (L1) and 12 Line 66 homozygotes (L66+/*) female mice aged 2-months at the beginning of the study were used (Table 32 for group size). Mice in each genotype were injected intraperitoneally (i.p.) with either vehicle or S1D12 (30 mg/kg), once per week, for six consecutive weeks.
Three-step assays were performed and analysed as per previously described plasma screening methods in this document.

[4] = Pharmacokinetic study of S1D12 mAb, single dose, plasma and brain (dGAE ligand binding ELISA); type: in vivo, mouse; details: single dose 30 mg/kg i.p., NMRI mice, plasma
Experimental: For the PK study, a total of 42 female NMRI mice (Swiss-type mouse, Naval Medical Research Institute) aged 6 months were allocated into six groups according to sample collection time (Table 30 for group size). Animals were injected intraperitoneally with S1D12 (30 mg/kg) and sacrificed 24-, 48-, 72-hours and 7-, 14- and 31-days after injection to collect blood and brain samples. A control group was also included in which animals were sacrificed to collect blood and brain, but no test item was administered.
Blood samples were centrifuged to obtain plasma at 2000×g for 5 min at 6° C., and samples were stored at −20° C. After blood collection, each mouse was perfused with heparinized saline for 2-3 minutes and the entire brain removed rapidly and snap frozen in liquid nitrogen and stored at −80° C.
Briefly, dGAE (1 μg/mL) was used to coat ELISA plates and blocked with 2% Marvel. […] Following washing, HRP-conjugated anti-mouse IgG as detector was added, and the assay developed using TMB solution as normal. The absorbance at 450 nm was read using a Clariostar plate reader (BMG Labtech) and MARS Clariostar software used to calculate S1D12 concentration from a standard curve.
Average values from each group (representing a time point) was plotted (FIG. 10) and the in vivo half-life, Cmax and Tmax calculated by performing a non-compartmental analysis of the plasma data using the PKSolver2.0 software (FIG. 51, Table 31). […] Here a higher coating concertation of dGAE at 10 μg/ml was used to compete off antibody binding to tau present in the brain.

T1 sequence (P10636 614-708): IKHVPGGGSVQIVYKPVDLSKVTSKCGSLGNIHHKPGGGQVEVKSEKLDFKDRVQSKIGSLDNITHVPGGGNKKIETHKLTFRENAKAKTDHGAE
Chain of hT40 (P10636 1-441 isoform P10636-8): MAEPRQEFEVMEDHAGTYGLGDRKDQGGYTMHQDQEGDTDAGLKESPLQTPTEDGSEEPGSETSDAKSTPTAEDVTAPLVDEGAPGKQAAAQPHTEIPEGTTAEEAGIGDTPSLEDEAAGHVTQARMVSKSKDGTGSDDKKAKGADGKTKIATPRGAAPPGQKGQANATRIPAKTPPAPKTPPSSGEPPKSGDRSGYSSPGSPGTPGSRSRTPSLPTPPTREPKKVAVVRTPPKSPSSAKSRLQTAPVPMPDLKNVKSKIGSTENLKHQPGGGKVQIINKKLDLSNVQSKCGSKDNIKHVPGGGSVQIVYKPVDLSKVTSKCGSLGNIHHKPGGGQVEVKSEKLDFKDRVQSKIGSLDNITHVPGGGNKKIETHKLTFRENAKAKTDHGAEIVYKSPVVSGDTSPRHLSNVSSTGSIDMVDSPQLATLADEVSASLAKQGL

Row | Molecule | tau detection in mouse brain homogenate [1] | LoD direct HRP conjugation of detection scAb & chemiluminescence (hT40) [ng/mL] | ThS fluorescence signal at 483 nm (dGAE [2]) | dGAE secondary structure by CD (dGAE [3]) | increase in plasma tau vs vehicle, NT1 assay (plasma tau) | plasma tau, NT1 assay (BT2 capture with Tau12 detection) (plasma tau; S1D12 mAb 30 mg/kg weekly for 6 weeks) [pg/mL] | increase in plasma tau vs vehicle, BT2-HT7 (plasma tau; did not reach statistical significance) | Tmax (time of peak plasma concentration) [4] [h] | t1/2 (elimination half-life from plasma) ([4]; non-compartmental analysis) [days] | Cmax ([4]; read-out: Cmax (peak plasma concentration)) [nM]
1 | B1 | tau protein was detected in 50 μg of total brain protein in all four different sample types | 0.04 |  |  |  |  |  |  |  | 
2 | B2 |  |  | this signal was abolished; also recorded: abolished when s1D12 is included in the assembly mixture | dGAE cannot assemble into β-sheet rich fibrils; also recorded: indicating that dGAE has not assembled into fibrils | four-fold increase | 3.2 ± 0.42 | two-fold increase | 24 | 10.68 | 1460
